One assay has as its target HLA-B*08:01. The assay is described as follows: IEDB peptide-MHC binding, purified MHC/competitive/radioactivity; filed as Kd, often an IC50 or EC50 that approximates it; ≥ and ≤ were set here for values at or beyond the usual limits of such assays.
For assay [1], the target named is HLA-A*02:01. Described as above.
The target of assay [2] is HLA-B*15:01. Described as above.
The next assay concerns the target HLA-A*32:01. Described as above.
The target of a further assay is HLA-A*01:01. The description is as above. To be noted: source organism: Mammarenavirus whitewaterense.
In assay [3] the target is HLA-A*26:01. Described as above. The conditions noted are these: source organism: Mammarenavirus whitewaterense.
The next assay addresses HLA-A*29:02. The description is as above. To be noted: source organism: Mammarenavirus whitewaterense.
A further assay has as its target HLA-A*30:01. The assay is described as above. To be noted: source organism: Mammarenavirus whitewaterense.
The next assay addresses HLA-A*30:02. The description is as above. The conditions noted are these: source organism: Mammarenavirus whitewaterense.
The next assay concerns the target HLA-B*40:01. Described as above.
Another assay deals with HLA-B*44:02. Described as above.
The target in a further assay is HLA-B*44:03. The assay is described as above.
The target in assay [4] is HLA-B*15:01. The assay is described as follows: IEDB peptide-MHC binding, purified MHC/competitive/fluorescence; filed as Kd, often an IC50 or EC50 that approximates it; ≥ and ≤ were set here for values at or beyond the usual limits of such assays.
The target of assay [5] is HLA-A*02:01. Described as above. To be noted: source organism: Escherichia coli 536.
The target in the next assay is HLA-B*51:01. The assay is described as above.
In a further assay the target is HLA-A*02:12. The assay is described as follows: IEDB peptide-MHC binding, purified MHC/direct/fluorescence; filed as Kd, often an IC50 or EC50 that approximates it; ≥ and ≤ were set here for values at or beyond the usual limits of such assays. To be noted: source organism: Mycobacterium tuberculosis str. Haarlem.
Assay [6] addresses HLA-A*69:01. The assay is described as above.
The target in assay [7] is HLA-A*26:01. The assay is described as follows: IEDB peptide-MHC binding, purified MHC/competitive/fluorescence; filed as Kd, often an IC50 or EC50 that approximates it; ≥ and ≤ were set here for values at or beyond the usual limits of such assays. To be noted: source organism: Homo sapiens.
In assay [8] the target is HLA-A*69:01. The assay is described as above. The conditions noted are these: source organism: Homo sapiens.
The next assay deals with HLA-B*27:03. The assay is described as above. To be noted: source organism: Homo sapiens.
The target in assay [9] is HLA-B*46:01. The description is as above. The conditions noted are these: source organism: Homo sapiens.
In a further assay the target is HLA-B*57:01. The description is as above. The conditions noted are these: source organism: Homo sapiens.
Assay [10] addresses HLA-B*15:01. The assay is described as follows: IEDB peptide-MHC binding, purified MHC/direct/fluorescence; filed as Kd, often an IC50 or EC50 that approximates it; ≥ and ≤ were set here for values at or beyond the usual limits of such assays. To be noted: source organism: Yellow fever virus.
Assay [11] has as its target HLA-B*46:01. The description is as above. The conditions noted are these: source organism: Yellow fever virus.
Another assay addresses HLA-B*07:02. The assay is described as follows: IEDB peptide-MHC binding, purified MHC/competitive/radioactivity; filed as Kd, often an IC50 or EC50 that approximates it; ≥ and ≤ were set here for values at or beyond the usual limits of such assays. The conditions noted are these: source organism: Dengue virus 2 Jamaica/1409/1983.
[12] abbreviates: source organism: Vaccinia virus WR.
The mark [13] stands for this setting: source organism: Lassa virus Josiah.
Where [14] appears, read: source organism: Vaccinia virus Copenhagen.
[15] abbreviates: source organism: Dengue virus 3 Martinique/1243/1999.
[16] abbreviates: source organism: Dengue virus 2 Jamaica/1409/1983.
The mark [17] stands for this setting: source organism: Escherichia coli 536.
Setting [18] is: source organism: Dengue virus 4 Philippines/H241/1956.

Some results are limits rather than exact numbers.

What is called Kd is the concentration at which binding is half-saturated. Regarding AIKLGFKSL, the Kd with HLA-B*08:01 (setting [12]) came to 41.3 nM.

On to ALPRNMVIT, for which the Kd with HLA-A*02:01 [1] (setting [13]) is 12500 nM.

As for AMIELCGAF, the Kd in the assay with HLA-B*15:01 [2] (setting [12]) is 0.336 nM.

As to ATIWRSLSI, in the assay with HLA-A*32:01 (setting [14]), the Kd is 1.89 nM.

As to ATTNAHCALL, the Kd is 7.67 µM in the assay with HLA-A*01:01; at least 69.7 µM in the assay with HLA-A*26:01 [3]; at least 71.4 µM with HLA-A*29:02; 2350 nM with HLA-A*30:01; 6.04 µM in the assay with HLA-A*30:02; at least 69900 nM with HLA-A*32:01 (source organism: Mammarenavirus whitewaterense).

For EEMFKKRNL, the Kd worked out at 6310 nM in the assay with HLA-B*40:01 (setting [15]), 51.2 nM with HLA-B*44:02 (setting [15]) and 483 nM with HLA-B*44:03 (setting [15]).

EKEENLVNSL: the Kd with HLA-B*08:01 (setting [16]) was determined as 1840 nM.

In the case of EVKTCIWPKS, in the assay with HLA-A*32:01 (source organism: Dengue virus 1 Brazil/97-11/1997), the Kd is at least 49500 nM.

For FIMIVGGLV, the Kd with HLA-A*02:01 [1] (source organism: HIV-1 M:B_MN) turned out to be 382 nM.

Regarding FLDEFMEAV, in the assay with HLA-A*02:01 [1] (source organism: Homo sapiens), the Kd came to 8.3 nM.

Turning to FLLSLVEFF, the Kd in the assay with HLA-B*15:01 [2] (setting [12]) worked out at 0.816 nM.

In the case of FRRLRKGSI, in the assay with HLA-B*08:01 (setting [12]), the Kd amounted to 3.01 nM.

As for FSQEEAKLF, the Kd in the assay with HLA-B*15:01 [4] (source organism: Yersinia pestis Antiqua) stood at 2480 nM.

In the case of FSSQALVLI, the Kd in the assay with HLA-A*02:01 [5] is 692 nM; in the assay with HLA-B*15:01 [4] (setting [17]) it was at least 20000 nM; with HLA-B*51:01 (setting [17]), at least 20 µM.

GEMCEDTVTY: the figures for the Kd in the assay with HLA-B*40:01 (setting [18]), in the assay with HLA-B*44:02 (setting [18]) and with HLA-B*44:03 (setting [18]) were 918 nM, 35.4 nM and 104 nM, respectively.

Consider GLLDVTDNV, for which the figures for the Kd in the assay with HLA-A*02:12 and in the assay with HLA-A*69:01 [6] (source organism: Mycobacterium tuberculosis) were 3 nM and 486 nM, respectively.

GVFPVSIPI: the Kd in the assay with HLA-A*32:01 (setting [16]) turned out to be 44.5 nM.

With IENLEYTVVV, in the assay with HLA-B*40:01 (setting [18]), the Kd worked out at 157 nM.

Take ITYPKALVF: the Kd with HLA-A*32:01 (setting [12]) was determined as 3.02 nM.

As for KIWGRKSWPL, the Kd with HLA-B*08:01 (source organism: Dengue virus 1 Singapore/S275/1990) turned out to be 382 nM.

Take KLFNIAQRI: the Kd in the assay with HLA-A*32:01 (setting [12]) worked out at 1.58 nM.

For KMFTYLMES, the dissociation constant (Kd) with HLA-A*26:01 [7], with HLA-A*69:01 [8], in the assay with HLA-B*27:03, with HLA-B*46:01 [9], with HLA-B*51:01 (source organism: Homo sapiens) and with HLA-B*57:01 was at least 20 µM in each case.

For KMLDPRQGL, the values for the Kd with HLA-A*69:01 [6] (source organism: Yellow fever virus), with HLA-B*15:01 [10] and with HLA-B*46:01 [11] were at least 10000 nM, 808 nM and at least 20 µM, respectively.

KTWGKAKIV: the Kd with HLA-A*32:01 (setting [15]) was determined as 1260 nM.

In the case of LAAVSVSPL, the Kd with HLA-B*07:02 amounted to 125 nM.

LAKKSYVVF: the Kd with HLA-B*15:01 [2] (setting [14]) is 97.3 nM.

Consider LEADYVESM, for which, in the assay with HLA-B*15:01 [2] (setting [12]), the Kd turned out to be 434 nM.

With LEKASLIEV, the Kd was 1030 nM with HLA-B*40:01 (setting [15]) and at least 77900 nM with HLA-B*44:02 (setting [15]).

Regarding LETLLLLTLL, in the assay with HLA-B*40:01 (setting [16]), the Kd is 101 nM.

For the sequence LGKKKTPRM, the Kd in the assay with HLA-B*08:01 (setting [16]) amounted to 378 nM.

Take LIALSVLAVL: the Kd with HLA-A*02:01 [1] (setting [13]) turned out to be 2780 nM.

(Values after the Immune Epitope Database (IEDB).)
